± gives the uncertainty stated by the source.
B1: Lysine-specific demethylase 5C, residues 319 to 373; numbered along this chain, P41229 (parent)
chain: AQFIESYVCRMCSRGDEDDKLLLCDGCDDNYHIFCLLPPLPEIPKGVWRCPKCVM

Variants of: B1
Assay: abundance fitness (aPCA) (normalised: wild type 0, dead -1); higher = more abundant; growth selection in yeast, the domain comes from the species named
Conditions: Homo sapiens

Row | Variant | abundance fitness
1 | D29Y | 0.036 ± 0.26
2 | M11R | 0.073 ± 0.086
3 | H32N | -0.672 ± 0.3
4 | P39H | -0.787 ± 0.3
5 | D29F | -0.128 ± 0.34
6 | C53M | -0.713 ± 0.34
7 | G15Q | -0.124 ± 0.086
8 | L23S | 0.148 ± 0.084
9 | F3A | -0.12 ± 0.12
10 | E17T | 0.087 ± 0.14
11 | M11H | -0.281 ± 0.22
12 | Q2M | -0.109 ± 0.24
13 | G46N | -0.405 ± 0.2
14 | Y7K | 0.155 ± 0.17
15 | C27D | -0.646 ± 0.29
16 | D29V | -0.228 ± 0.19
17 | D19F | -0.103 ± 0.1
18 | R10E | -0.1 ± 0.28
19 | Y31F | -0.163 ± 0.14
20 | Y31E | -0.538 ± 0.14
21 | K20T | 0.096 ± 0.13
22 | Y31A | -0.476 ± 0.095
23 | L23M | 0.235 ± 0.085
24 | L37V | -0.083 ± 0.13

Row | Variant | abundance fitness
25 | Y7R | 0.14 ± 0.091
26 | K45T | -0.003 ± 0.17
27 | C35S | -0.597 ± 0.12
28 | V54N | -0.262 ± 0.28
29 | N30H | -0.176 ± 0.25
30 | F34D | -0.149 ± 0.17
31 | H32C | -0.677 ± 0.16
32 | Q2C | -0.446 ± 0.31
33 | G46H | 0.132 ± 0.23
34 | K52E | -0.23 ± 0.15
35 | L21Q | -0.353 ± 0.19
36 | K20C | -0.379 ± 0.3
37 | V47I | -0.132 ± 0.18
38 | L23A | 0.044 ± 0.1
39 | D16T | -0.182 ± 0.12
40 | K45Y | -0.553 ± 0.27
41 | R10Y | -0.175 ± 0.44
42 | E42D | 0.043 ± 0.24
43 | C50W | -0.823 ± 0.22
44 | I4N | -0.35 ± 0.18
45 | E17G | 0.023 ± 0.091
46 | E17I | -0.052 ± 0.21
47 | A1M | 0.135 ± 0.47
48 | F34L | -0.157 ± 0.11

Row | Variant | abundance fitness
49 | D25C | -0.274 ± 0.12
50 | L21V | -0.348 ± 0.11
51 | C35W | -0.804 ± 0.27
52 | D18K | 0.184 ± 0.097
53 | K45C | -0.156 ± 0.14
54 | I43L | 0.101 ± 0.1
55 | E42G | -0.157 ± 0.15
56 | P39N | -0.045 ± 0.17
57 | K52N | -0.032 ± 0.21
58 | K45Q | -0.277 ± 0.16
59 | K45I | -0.25 ± 0.23
60 | Q2H | -0.187 ± 0.15
61 | Y31M | -0.074 ± 0.24
62 | V47C | -0.213 ± 0.2
63 | A1W | -0.242 ± 0.34
64 | C50A | -0.887 ± 0.19
65 | C53P | -0.744 ± 0.22
66 | G15R | 0.035 ± 0.075
67 | Q2K | 0.247 ± 0.33
68 | C12P | -0.52 ± 0.17
69 | C50F | -0.421 ± 0.23
70 | C35G | -0.9 ± 0.21
71 | C50Y | -0.761 ± 0.28
72 | K52I | 0.006 ± 0.21

Row | Variant | abundance fitness
73 | W48V | -0.78 ± 0.14
74 | I43M | 0.156 ± 0.14
75 | E17W | -0.176 ± 0.16
76 | G26Y | -0.341 ± 0.22
77 | F34W | -0.087 ± 0.15
78 | D19M | -0.254 ± 0.1
79 | V8W | -0.247 ± 0.16
80 | W48T | -1.05 ± 0.25
81 | S6R | 0.001 ± 0.11
82 | L37K | 0.277 ± 0.15
83 | C9A | -0.797 ± 0.13
84 | F34M | -0.165 ± 0.18
85 | C9V | -0.792 ± 0.15
86 | Y7T | 0.199 ± 0.12
87 | V54Q | -0.54 ± 0.26
88 | P41S | 0.047 ± 0.094
89 | I43K | -0.101 ± 0.14
90 | D29R | 0.004 ± 0.17
91 | I43P | -0.307 ± 0.17
92 | F3Y | -0.043 ± 0.19
93 | W48L | -0.849 ± 0.15
94 | K52F | -0.14 ± 0.23
95 | C53S | -0.835 ± 0.16
96 | H32E | -0.945 ± 0.21

Row | Variant | abundance fitness
97 | I4D | -0.058 ± 0.18
98 | N30D | -0.774 ± 0.23
99 | K20W | -0.317 ± 0.24
100 | C50M | -1.17 ± 0.44
101 | D19A | 0.063 ± 0.1
102 | S13I | -0.029 ± 0.16
103 | R49G | -0.4 ± 0.2
104 | F3W | -0.639 ± 0.28
105 | V54L | -0.196 ± 0.15
106 | G15V | -0.025 ± 0.096
107 | G15P | 0.04 ± 0.074
108 | F34E | 0.021 ± 0.13
109 | F3Q | -0.201 ± 0.18
110 | S6V | -0.377 ± 0.19
111 | F3C | -0.193 ± 0.14
112 | M55A | -0.035 ± 0.41
113 | E42C | -0.245 ± 0.15
114 | W48F | -0.253 ± 0.22
115 | N30R | 0.071 ± 0.075
116 | C50N | -0.927 ± 0.48
117 | E42L | -0.431 ± 0.11
118 | D19L | -0.162 ± 0.07
119 | P51T | -0.467 ± 0.17
120 | L22E | -0.523 ± 0.17

Row | Variant | abundance fitness
121 | P51Q | -0.136 ± 0.16
122 | C12M | -0.669 ± 0.37
123 | M11P | -0.669 ± 0.17
124 | P39W | -0.752 ± 0.27
125 | M11D | -0.063 ± 0.23
126 | G15H | -0.391 ± 0.14
127 | L21P | -0.683 ± 0.098
128 | P41I | -0.134 ± 0.47
129 | D18I | 0.125 ± 0.14
130 | R10M | -0.036 ± 0.25
131 | K52V | -0.123 ± 0.12
132 | V54H | 0.002 ± 0.29
133 | H32Q | -0.756 ± 0.22
134 | I4C | -0.106 ± 0.24
135 | D19E | -0.091 ± 0.16
136 | A1T | -0.704 ± 0.3
137 | G26Q | -0.129 ± 0.17
138 | N30C | 0.006 ± 0.12
139 | E42T | 0.068 ± 0.11
140 | L36N | -0.576 ± 0.25
141 | P39T | -0.599 ± 0.17
142 | L23E | -0.078 ± 0.13
143 | V8T | -0.039 ± 0.15
144 | C9Y | -0.955 ± 0.22

Row | Variant | abundance fitness
145 | L22R | -0.169 ± 0.078
146 | V47P | -0.247 ± 0.24
147 | D28K | -0.516 ± 0.41
148 | C12W | -0.853 ± 0.2
149 | K45W | -0.446 ± 0.2
150 | K52T | 0.018 ± 0.13
151 | F34H | -0.135 ± 0.18
152 | K52M | -0.611 ± 0.27
153 | Y31K | -0.702 ± 0.14
154 | Y31R | -0.641 ± 0.11
155 | M11N | 0.045 ± 0.21
156 | P38V | -0.1 ± 0.1
157 | D28P | 0.259 ± 0.21
158 | K45M | -0.469 ± 0.28
159 | C27W | -1.06 ± 0.27
160 | E17V | 0.22 ± 0.11
161 | K20F | -0.16 ± 0.17
162 | F34P | -0.291 ± 0.15
163 | R49A | -0.262 ± 0.16
164 | S6W | -0.414 ± 0.18
165 | F3I | -0.17 ± 0.17
166 | N30G | 0.052 ± 0.073
167 | E5M | 0.145 ± 0.15

— the Human Domainome abundance scans (Beltran et al. 2025)
